From US20230272045A1 (published 2023)
Where two headings read alike, the source gives them in different places.

B1: BMP-2 (bone morphogenetic protein-2, Peprotech) (ligand)
chain: QAKHKQRKRLKSSCKRHPLYVDFSDVGWNDWIVAPPGYHAFYCHGECPFPLADHLNSTNHAIVQTLVNSVNSKIPKACCVPTELSAISMLYLDENEKVVLKNYQDMVVEGCGCR
B2: PDGF-BB (murine wild-type platelet-derived growth factor-BB) (ligand)
chain: SLGSLAAAEPAVIAECKTRTEVFQISRNLIDRTNANFLVWPPCVEVQRCSGCCNNRNVQCRASQVQMRPVQVRKIEIVRKKPIFKKATVTLEDHLACKCETIVTPRPVT

Columns and labels:
Test in all cases: ELISA
human vitronectin [1] = molecular target: T1, human vitronectin (human, UniProt P04004 20-478)
T1 chain: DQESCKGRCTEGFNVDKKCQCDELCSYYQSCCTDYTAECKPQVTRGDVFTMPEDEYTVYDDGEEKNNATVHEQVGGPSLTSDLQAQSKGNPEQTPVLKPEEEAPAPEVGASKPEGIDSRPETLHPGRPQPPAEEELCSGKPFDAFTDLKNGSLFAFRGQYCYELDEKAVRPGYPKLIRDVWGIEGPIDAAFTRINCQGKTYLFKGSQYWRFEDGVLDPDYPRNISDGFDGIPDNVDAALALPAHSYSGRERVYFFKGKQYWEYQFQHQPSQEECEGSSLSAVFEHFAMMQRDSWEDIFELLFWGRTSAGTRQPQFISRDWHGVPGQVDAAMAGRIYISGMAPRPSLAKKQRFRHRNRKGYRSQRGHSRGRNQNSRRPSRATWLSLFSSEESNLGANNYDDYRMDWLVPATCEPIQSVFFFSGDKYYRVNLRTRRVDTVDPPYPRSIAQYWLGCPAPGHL

human plasma fibronectin [2] = molecular target: T2, human plasma fibronectin (human, UniProt P02751 32-2296)
T2 sequence (P02751 other isoform, or with tags, fused parts or gaps): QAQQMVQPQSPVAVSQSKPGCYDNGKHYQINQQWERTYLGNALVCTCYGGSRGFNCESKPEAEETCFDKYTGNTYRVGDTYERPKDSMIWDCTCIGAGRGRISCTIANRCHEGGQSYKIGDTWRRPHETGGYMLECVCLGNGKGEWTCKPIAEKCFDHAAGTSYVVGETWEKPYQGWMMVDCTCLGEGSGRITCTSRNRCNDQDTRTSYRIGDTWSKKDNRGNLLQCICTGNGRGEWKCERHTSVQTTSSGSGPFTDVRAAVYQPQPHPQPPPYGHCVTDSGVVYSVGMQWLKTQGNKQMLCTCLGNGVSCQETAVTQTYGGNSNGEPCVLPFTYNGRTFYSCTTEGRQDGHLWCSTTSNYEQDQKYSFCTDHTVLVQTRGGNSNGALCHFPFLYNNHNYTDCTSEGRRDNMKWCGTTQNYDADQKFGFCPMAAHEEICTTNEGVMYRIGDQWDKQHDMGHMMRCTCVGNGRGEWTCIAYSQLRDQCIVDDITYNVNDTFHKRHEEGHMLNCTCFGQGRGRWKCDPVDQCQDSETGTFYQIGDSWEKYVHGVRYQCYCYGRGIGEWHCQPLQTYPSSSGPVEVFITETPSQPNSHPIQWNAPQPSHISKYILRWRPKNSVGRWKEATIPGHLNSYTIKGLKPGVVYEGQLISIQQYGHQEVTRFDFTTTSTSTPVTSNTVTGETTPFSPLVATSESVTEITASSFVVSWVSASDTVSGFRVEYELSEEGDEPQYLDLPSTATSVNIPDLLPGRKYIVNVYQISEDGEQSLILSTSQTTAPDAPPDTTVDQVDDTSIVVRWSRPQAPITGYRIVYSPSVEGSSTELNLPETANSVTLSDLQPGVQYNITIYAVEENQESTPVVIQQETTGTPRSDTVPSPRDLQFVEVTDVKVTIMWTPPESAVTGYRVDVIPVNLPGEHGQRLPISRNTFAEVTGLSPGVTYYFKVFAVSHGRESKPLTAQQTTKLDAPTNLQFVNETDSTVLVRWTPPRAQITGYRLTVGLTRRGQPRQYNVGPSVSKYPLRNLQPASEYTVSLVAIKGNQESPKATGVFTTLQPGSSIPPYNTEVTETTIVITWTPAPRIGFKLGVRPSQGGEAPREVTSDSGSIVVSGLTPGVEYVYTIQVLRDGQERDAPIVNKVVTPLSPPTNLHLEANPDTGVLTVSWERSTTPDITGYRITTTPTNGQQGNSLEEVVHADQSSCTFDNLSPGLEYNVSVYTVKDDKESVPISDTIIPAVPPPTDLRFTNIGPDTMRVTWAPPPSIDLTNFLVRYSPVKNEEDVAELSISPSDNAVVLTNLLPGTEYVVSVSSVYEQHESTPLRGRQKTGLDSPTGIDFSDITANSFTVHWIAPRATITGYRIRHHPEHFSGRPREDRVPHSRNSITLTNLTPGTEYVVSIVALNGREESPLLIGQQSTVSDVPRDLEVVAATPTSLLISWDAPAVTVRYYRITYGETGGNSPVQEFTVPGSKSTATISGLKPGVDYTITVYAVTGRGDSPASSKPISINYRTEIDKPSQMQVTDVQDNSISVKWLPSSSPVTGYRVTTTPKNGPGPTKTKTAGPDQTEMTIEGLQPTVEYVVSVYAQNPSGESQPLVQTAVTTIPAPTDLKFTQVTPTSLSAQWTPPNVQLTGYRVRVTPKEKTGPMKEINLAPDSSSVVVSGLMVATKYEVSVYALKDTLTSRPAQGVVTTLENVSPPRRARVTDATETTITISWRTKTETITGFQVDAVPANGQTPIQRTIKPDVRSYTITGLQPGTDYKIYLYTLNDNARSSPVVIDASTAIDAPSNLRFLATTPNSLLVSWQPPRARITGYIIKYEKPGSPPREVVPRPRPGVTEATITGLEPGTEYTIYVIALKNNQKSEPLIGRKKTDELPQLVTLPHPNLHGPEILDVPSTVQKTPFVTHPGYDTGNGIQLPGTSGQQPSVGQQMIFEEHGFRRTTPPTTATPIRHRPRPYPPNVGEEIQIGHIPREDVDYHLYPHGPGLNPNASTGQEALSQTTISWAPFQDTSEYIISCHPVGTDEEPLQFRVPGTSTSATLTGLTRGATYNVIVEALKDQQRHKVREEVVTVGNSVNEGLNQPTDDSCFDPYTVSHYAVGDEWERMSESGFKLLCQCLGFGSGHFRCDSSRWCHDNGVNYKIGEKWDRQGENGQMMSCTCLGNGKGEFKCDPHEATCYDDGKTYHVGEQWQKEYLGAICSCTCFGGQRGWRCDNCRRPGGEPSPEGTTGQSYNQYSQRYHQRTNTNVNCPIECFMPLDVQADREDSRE

human tenascin C = human tenascin C (human, UniProt P24821 23-2201)
Chain of human tenascin C (P24821 23-2201): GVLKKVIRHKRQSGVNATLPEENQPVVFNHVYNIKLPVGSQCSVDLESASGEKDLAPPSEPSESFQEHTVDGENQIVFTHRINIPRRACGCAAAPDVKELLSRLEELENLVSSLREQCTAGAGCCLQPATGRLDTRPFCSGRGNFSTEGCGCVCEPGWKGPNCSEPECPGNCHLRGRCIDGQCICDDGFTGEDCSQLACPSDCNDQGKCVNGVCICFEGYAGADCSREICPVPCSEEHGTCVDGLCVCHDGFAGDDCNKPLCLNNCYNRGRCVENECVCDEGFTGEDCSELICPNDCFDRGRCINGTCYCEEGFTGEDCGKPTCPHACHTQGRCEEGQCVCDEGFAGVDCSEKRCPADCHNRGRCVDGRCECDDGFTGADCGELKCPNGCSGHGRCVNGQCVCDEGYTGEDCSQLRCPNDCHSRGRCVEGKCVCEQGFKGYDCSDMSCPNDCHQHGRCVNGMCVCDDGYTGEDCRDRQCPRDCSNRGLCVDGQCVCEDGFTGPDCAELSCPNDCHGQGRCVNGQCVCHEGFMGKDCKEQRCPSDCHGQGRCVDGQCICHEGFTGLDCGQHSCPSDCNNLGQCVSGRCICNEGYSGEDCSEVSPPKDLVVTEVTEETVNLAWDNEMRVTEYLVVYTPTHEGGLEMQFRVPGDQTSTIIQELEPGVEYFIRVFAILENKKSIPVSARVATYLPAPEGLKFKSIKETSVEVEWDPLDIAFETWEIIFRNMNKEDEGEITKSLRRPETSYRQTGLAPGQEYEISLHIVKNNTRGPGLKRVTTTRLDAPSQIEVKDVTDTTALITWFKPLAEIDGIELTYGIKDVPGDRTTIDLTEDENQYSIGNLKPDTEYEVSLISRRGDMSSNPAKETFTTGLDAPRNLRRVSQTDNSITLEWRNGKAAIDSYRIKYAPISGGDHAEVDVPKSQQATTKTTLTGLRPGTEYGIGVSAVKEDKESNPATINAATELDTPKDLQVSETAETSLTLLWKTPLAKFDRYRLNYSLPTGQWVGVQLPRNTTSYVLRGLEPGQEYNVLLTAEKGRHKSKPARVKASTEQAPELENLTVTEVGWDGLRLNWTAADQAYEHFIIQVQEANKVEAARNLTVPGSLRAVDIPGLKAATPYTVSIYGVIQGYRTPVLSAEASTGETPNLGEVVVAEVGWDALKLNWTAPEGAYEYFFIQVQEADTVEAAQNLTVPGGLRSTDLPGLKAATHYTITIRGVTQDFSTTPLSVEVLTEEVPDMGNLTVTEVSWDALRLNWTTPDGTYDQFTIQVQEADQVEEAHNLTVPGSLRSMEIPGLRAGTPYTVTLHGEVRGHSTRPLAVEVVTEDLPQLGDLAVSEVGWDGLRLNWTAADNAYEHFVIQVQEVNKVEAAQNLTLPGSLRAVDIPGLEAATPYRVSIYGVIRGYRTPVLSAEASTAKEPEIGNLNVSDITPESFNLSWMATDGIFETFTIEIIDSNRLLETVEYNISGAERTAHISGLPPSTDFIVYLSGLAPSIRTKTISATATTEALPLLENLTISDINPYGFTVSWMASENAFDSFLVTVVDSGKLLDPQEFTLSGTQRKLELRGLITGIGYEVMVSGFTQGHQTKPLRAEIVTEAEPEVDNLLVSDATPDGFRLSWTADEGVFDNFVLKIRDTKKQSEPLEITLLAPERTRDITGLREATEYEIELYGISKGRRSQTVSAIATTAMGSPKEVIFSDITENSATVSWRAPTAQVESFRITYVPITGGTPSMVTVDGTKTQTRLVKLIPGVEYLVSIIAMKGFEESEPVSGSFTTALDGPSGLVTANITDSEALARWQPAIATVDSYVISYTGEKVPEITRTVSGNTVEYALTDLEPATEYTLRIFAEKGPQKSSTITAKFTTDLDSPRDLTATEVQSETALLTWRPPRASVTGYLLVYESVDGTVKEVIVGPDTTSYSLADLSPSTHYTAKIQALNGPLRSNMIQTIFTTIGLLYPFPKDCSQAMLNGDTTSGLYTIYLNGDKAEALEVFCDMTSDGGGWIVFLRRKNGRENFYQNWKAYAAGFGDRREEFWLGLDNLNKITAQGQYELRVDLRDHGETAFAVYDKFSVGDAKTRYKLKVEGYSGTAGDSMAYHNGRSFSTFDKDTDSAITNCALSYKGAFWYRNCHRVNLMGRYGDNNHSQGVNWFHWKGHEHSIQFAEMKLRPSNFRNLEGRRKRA

human fibrinogen = molecular target: T3, human fibrinogen (human, UniProt P02671 20-644; P02675 31-491; P02679 27-437)
T3 chain 1: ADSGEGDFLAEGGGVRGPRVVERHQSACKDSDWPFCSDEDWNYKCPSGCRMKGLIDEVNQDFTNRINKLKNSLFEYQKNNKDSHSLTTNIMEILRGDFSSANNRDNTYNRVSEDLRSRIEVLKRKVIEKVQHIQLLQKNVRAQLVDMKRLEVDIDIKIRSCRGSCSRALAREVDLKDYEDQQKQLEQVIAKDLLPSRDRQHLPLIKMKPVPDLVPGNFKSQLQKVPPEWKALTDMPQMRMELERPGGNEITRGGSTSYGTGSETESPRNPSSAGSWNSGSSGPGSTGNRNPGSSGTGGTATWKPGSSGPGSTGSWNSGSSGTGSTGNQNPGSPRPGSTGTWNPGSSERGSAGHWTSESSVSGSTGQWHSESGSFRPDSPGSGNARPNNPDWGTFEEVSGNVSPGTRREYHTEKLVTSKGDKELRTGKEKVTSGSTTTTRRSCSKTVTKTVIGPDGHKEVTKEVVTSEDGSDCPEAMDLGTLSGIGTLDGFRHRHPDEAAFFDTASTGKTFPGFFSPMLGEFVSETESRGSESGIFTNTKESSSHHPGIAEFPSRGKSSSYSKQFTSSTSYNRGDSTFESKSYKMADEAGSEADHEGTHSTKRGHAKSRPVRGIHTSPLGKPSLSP
T3 chain 2: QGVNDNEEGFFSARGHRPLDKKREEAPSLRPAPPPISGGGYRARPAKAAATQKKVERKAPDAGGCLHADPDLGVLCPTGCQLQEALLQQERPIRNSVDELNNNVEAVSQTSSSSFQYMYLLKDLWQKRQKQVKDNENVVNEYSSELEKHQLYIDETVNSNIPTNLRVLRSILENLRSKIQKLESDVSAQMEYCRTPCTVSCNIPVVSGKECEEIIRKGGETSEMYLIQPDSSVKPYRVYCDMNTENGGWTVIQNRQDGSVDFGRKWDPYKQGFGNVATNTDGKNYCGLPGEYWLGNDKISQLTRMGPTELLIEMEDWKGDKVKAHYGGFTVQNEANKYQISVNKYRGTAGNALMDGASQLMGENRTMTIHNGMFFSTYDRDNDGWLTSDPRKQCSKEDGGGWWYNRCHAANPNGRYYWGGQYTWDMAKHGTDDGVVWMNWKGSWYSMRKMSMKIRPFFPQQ
T3 chain 3: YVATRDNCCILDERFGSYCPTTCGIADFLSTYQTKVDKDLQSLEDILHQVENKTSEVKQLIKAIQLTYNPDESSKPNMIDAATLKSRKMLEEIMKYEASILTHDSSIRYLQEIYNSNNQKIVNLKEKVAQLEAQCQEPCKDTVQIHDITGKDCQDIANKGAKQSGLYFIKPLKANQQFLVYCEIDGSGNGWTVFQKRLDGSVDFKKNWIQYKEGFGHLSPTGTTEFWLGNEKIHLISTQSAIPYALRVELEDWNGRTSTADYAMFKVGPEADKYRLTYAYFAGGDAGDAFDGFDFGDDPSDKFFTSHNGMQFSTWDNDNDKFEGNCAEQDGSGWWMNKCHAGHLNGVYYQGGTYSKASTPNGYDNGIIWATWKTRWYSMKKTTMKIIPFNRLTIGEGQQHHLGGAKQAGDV

human vitronectin [3] = molecular target: T1, human vitronectin
human plasma fibronectin [4] = molecular target: T2, human plasma fibronectin; remark: listed apart in the source

Binder	Kd (human vitronectin [1]) [nM]	Kd (human plasma fibronectin [2]) [nM]	Kd (human tenascin C) [nM]	Kd (human fibrinogen) [nM]	Kd (human vitronectin [3]) [nM]	Kd (human plasma fibronectin [4]) [nM]
B1	12.6	49.9	19.5	46.4	–	–
B2	–	–	–	–	29.8	60.2
